# In article doi:10.1101/2023.07.29.551094:
# B1: TilA (SAOUHSC_00405) lacking its signal sequence, His tag removed (natural protein)
# chain: CGNMKDEQKKEEQTNKTDSKEEQIKKSFAKTLDMYPIKNLEDLYDKEGYRDGEFKKGDKGTWTILTGFSKSNKPGVLDDEGMVLYLNRNTKKATGYYFVNKVYDDISKNHNEKKYRVELKNNKIVLLDNVEDKKLKQKIENFKFFSQYADFKDLKNYQDGNITTNENVPSYEAQYKMNNSDKNVKKLREIYPITTNNSPNLKLYIDGDIKGSSVGYKKIEYKFSKDKGQETTLRDYLNFGPSEGENVE
# Biological target: TslA lipase domain, purified (S. aureus)
# Experiment: ITC
binder,measurement,value
B1,Kd,14.2 nM
same,dH,-20.5 kcal/mol
same,stoichiometry N,0.88
